Experimental data: US20250076311A1 (Chugai, published 2025)
Numbering of substitutions follows the chain as printed. Names and notes keep the numbering of the source.

Legend:
[1] = target: T1, human FcγRIIIaV extracellular domain with C-terminal His-tag (human, UniProt P08637 17-208); experiment: SPR, KD(SG1)/KD(variant)
T1 construct: also called human FcgRIIIaV
Description: (§1) The kinetic analysis of interactions between these antibodies and FcγR was carried out using BIACORE® T200 or BIACORE® 4000 (GE Healthcare). HBS-EP+ (GE Healthcare) was used as the running buffer, and the measurement temperature was set to 25° C. […] After the measurement, the antibody captured on the chip was washed off by allowing reaction with 10 mM glycine-HCl, pH1.5 and 25 mM NaOH so that the chip was regenerated and used repeatedly. The sensorgrams obtained as measurement results were analyzed by the 1:1 Langmuir binding model using the BIACORE® Evaluation Software to calculate the binding rate constant ka (L/mol/s) and dissociation rate constant kd (1/s), and the dissociation constant KD (mol/L) was calculated from these values. […] Regarding such interactions, KD values were calculated using the following 1:1 binding model described in BIACORE® T100 Software Handbook BR1006-48 Edition AE.

[2] = target: T2, cynomolgus monkey FcγRIIa1 extracellular domain with C-terminal His-tag (cynomolgus monkey); experiment: SPR, KD(SG1)/KD(variant)
T2 construct: also called cyno FcgRIIa1; cynoFcγRIIa1
T2 chain: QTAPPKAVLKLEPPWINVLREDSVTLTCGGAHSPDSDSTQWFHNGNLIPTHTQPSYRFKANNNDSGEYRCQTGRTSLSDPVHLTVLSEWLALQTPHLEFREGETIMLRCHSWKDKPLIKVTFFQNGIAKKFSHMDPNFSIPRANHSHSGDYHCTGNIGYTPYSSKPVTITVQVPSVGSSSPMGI
Description: as §1

[3] = target: T3, cynomolgus monkey FcγRIIIaS extracellular domain with C-terminal His-tag (cynomolgus monkey, UniProt Q8SPW2 21-206 at identity 1.00)); experiment: SPR, KD(SG1)/KD(variant)
T3 construct: also called cyno FcgRIIIaS; cynoFcγRIIIaS
T3 chain: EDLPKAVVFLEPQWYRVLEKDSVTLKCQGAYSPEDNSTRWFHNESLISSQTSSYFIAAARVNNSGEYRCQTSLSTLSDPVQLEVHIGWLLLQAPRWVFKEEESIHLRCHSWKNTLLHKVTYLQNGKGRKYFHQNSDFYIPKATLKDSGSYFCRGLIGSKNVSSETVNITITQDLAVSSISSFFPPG
Description: as §1

[4] = target: T4, cynomolgus monkey FcγRIIa2 extracellular domain with C-terminal His-tag (cynomolgus monkey); experiment: SPR, KD(SG1)/KD(variant)
T4 construct: also called cyno FcgRIIa2; cynoFcγRIIa2
T4 chain: T2 chain with P95T, T121A, I127K, A128S, K130N, D135N, R142Q
Description: as §1

[5] = target: T3, cynomolgus monkey FcγRIIIaS …; experiment: SPR, antibody captured, FcγR analyte
[6] = target: T5, human FcγRIIaR extracellular domain with C-terminal His-tag (human, UniProt P12318 34-217); experiment: SPR, antibody captured, FcγR analyte
T5 construct: also called human FcgRIIaR; FcγRIIa (type R)
T5 chain: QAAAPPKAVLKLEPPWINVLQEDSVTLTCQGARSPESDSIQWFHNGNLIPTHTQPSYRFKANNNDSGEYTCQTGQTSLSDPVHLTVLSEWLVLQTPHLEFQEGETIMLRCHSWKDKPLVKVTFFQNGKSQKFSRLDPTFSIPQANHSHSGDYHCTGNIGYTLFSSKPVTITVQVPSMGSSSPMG

[7] = target: T6, human FcγRIIaH extracellular domain, C-terminal His-tag (human, UniProt P12318 34-217); experiment: SPR, anti-kappa capture; KD(SG1)/KD(variant)
T6 construct: also called FcgRIIaH; human FcγRIIa (type H)
T6 sequence: T5 chain with R134H

[8] = target: T7, cynomolgus monkey FcγRIIb extracellular domain, His-tagged (cynomolgus monkey); experiment: SPR Biacore, antibody captured, FcgR analyte
T7 construct: also called cyno FcγRIIb; cynoFcγRIIb; not shown: C-terminal His-tag
T7 chain: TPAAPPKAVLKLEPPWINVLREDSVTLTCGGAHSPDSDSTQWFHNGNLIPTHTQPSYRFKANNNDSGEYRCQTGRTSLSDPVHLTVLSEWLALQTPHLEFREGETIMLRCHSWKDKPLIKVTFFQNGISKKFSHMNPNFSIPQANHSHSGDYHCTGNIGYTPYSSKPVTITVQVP

[9] = target: T8, human FcγRIIb extracellular domain, His-tagged (human, UniProt P31994 43-217); experiment: SPR Biacore, KD(SG1)/KD(variant)
T8 construct: also called FcgRIIb (human); not shown: C-terminal His-tag
T8 sequence: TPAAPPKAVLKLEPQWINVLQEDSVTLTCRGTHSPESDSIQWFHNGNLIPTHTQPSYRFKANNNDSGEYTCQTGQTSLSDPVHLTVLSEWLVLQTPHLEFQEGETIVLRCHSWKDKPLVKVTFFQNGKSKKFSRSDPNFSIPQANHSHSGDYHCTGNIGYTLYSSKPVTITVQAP

[10] = target: T9, cynomolgus monkey FcγRIIa2 extracellular domain, His-tagged (cynomolgus monkey); experiment: SPR Biacore, KD(SG1)/KD(variant)
T9 construct: also called cyno FcγRIIa2; cynoFcgRIIa2; not shown: C-terminal His-tag
T9 chain: T2 chain with P95T, T121A, I127K, A128S, K130N, D135N, R142Q

[11] = target: T10, cynomolgus monkey FcγRIIa3 extracellular domain, His-tagged (cynomolgus monkey); experiment: SPR Biacore, KD(SG1)/KD(variant)
T10 construct: also called cyno FcγRIIa3; cynoFcgRIIa3; not shown: C-terminal His-tag
T10 chain: T2 chain with P95T, T121A, A128S, H133P, D135N

[12] = target: T11, human FcγRIIaR extracellular domain, His-tagged (human, UniProt P12318 34-217); experiment: SPR Biacore, KD(SG1)/KD(variant)
T11 construct: also called human FcγRIIa (type R); FcgRIIaR; not shown: C-terminal His-tag
T11 chain: T5 chain

[13] = target: T12, human FcγRIIIaV extracellular domain, His-tagged (human, UniProt P08637 17-208); experiment: SPR Biacore, antibody captured, FcgR analyte
T12 construct: also called FcgRIIIaV; not shown: C-terminal His-tag

[14] = target: T9, cynomolgus monkey FcγRIIa2 …; experiment: SPR Biacore, antibody captured, FcgR analyte

T12 sequence (P08637 17-208 F176V): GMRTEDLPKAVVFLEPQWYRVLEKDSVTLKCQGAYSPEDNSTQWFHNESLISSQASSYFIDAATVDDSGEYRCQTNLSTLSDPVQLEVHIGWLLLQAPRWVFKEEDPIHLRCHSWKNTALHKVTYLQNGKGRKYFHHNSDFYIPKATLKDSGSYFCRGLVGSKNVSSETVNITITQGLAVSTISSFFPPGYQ
T1 sequence (P08637 17-208 F176V): as above

B1: MS1032LO06-PK57 (antibody, human IgG1, kappa)
heavy: QVTLKESGPVLVKPTETLTLTCTVSGIDLSHDDISWVRQAPGKGLEWVGIISYAGSTYYASWAKGRLTISKDTSKNQVVLTMTNMDPVDTATYYCARGVPAYSHGGDLWGQGTLVTVSSASTKGPSVFPLAPSSKSTSGGTAALGCLVKDYFPEPVTVSWNSGALTSGVHTFPAVLQSSGLYSLSSVVTVPSSSLGTQTYICNVNHKPSNTKVDKKVEPKSCDKTHTCPPCPAPELLNGPSVFLFPPKPKDTLMISRTPEVTCVVVDVSDEDPEVKFNWYVDGVEVHNAKTKPREEQYNSTYRVVSVLTVLHRDWLNGKEYKCKVSNKALPKPIEKTISKAKGQPREPQVYTLPPSREEMTKNQVSLTCLVKGFYPSDIAVEWESRGQPENNYKTTPPVLDSDGSFFLYSKLTVRKSRWQQGNVFSCSVMHEALHNHYTQKSLSLSP
light: DIVMTQSPATLSLSPGERATLSCTSSQSVYHANWLSWFQQKPGQPPKLLIYWASTLAYGVPSRFSGSGSGTDFTLTISSLQPEDAATYYCAGGYGGGRYAFGQGTKVEIKRTVAAPSVFIFPPSDEQLKSGTASVVCLLNNFYPREAKVQWKVDNALQSGNSQESVTEQDSKDSTYSLSSTLTLSKADYEKHKVYACEVTHQGLSSPVTKSFNRGEC
notes: MY201 with Q311R/N384R/D413R; also called MS103205H795-PK57; M103205H795-MY57; copies: 2 + 2
KD fold (SG1 = 1) [1]: 0.07 fold | KD fold (SG1 = 1) [2]: 2.3 fold | KD fold (SG1 = 1) [3]: 0.06 fold | KD fold (SG1 = 1) [4]: 2 fold | Kd [5]: 4.3 µM | Kd [6]: 22 µM

B2: MS103240H795-TT91/M103202L1045-SK1 (antibody)
heavy: QVQLVESGGGLVQPGGSLRLSCAVSGIDLSHDDISWVRQAPGKGLEWVSIISYAGSTYYASWAKGRLTISKDTSKNQVVLTMTNMDPVDTATYYCARGVPAYSHGGDLWGQGTLVTVSSASTKGPSVFPLAPSSKSTSGGTAALGCLVKDYFPEPVTVSWNSGALTSGVHTFPAVLQSSGLYSLSSVVTVPSSSLGTQTYICNVNHKPSNTKVDKKVEPKSCDKTHTCPPCPAPEYLGGDSVFLFPPKPKDVLMISRTPEVTCVVIDVSHEDPEVKFNWYVDGVEVHNAKTKPREEQYNSTYRVVSVLPVLHRDWLNGKEYKCKVSNKALPKPIEKTISKAKGQRREPQVYTLPPSREEMTKNQVSLTCLVKGFYPSDIAVEWESNGQPENNYKTTPPVLDSDGSFFLYSKLTVDKSRWQQGNVFSCSVLHEALHAHTTRKELSLSP
light: B1 light with S25T, A32E
KD fold (SG1 = 1) [7]: 0.02 fold

B3: M103205H795-MY015/M103202L889-SK1 (antibody, human IgG1, kappa, name in EU numbering)
heavy: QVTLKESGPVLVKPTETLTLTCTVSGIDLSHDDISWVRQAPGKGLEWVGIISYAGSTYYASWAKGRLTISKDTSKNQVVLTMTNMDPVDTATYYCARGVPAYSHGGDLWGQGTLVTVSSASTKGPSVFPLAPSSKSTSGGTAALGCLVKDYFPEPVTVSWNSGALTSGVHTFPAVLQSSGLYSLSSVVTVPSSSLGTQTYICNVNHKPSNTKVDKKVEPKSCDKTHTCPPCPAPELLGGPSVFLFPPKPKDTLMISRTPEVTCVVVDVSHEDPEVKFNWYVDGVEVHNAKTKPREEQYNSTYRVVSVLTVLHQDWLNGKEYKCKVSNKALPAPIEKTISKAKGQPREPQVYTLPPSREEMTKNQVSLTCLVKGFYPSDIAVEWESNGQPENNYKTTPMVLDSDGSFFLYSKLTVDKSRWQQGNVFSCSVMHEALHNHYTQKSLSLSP
light: B1 light
notes: Substitution introduced into M103205H795-SG1; EU numbering
Kd [8]: 600 nM

B4: M103205H795-MY017/M103202L889-SK1 (antibody, human IgG1, kappa, name in EU numbering)
heavy: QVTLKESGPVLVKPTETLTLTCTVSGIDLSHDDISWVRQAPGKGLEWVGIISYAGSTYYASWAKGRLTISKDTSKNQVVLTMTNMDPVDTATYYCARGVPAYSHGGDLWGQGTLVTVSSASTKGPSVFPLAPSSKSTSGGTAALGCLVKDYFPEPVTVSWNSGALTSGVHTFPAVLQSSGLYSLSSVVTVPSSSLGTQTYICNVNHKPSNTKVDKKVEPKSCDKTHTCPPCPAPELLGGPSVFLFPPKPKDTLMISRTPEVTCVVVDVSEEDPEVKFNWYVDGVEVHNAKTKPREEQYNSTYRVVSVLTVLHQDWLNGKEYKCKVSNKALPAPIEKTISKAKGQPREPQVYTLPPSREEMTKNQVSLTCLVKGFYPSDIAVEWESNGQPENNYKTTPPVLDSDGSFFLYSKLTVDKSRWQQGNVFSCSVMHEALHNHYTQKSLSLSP
light: B1 light
notes: as for B3
KD fold (SG1 = 1) [9]: 4.5 fold | KD fold (SG1 = 1) [10]: 1.6 fold | KD fold (SG1 = 1) [11]: 3.1 fold | KD fold (SG1 = 1) [12]: 3.9 fold | Kd [8]: 680 nM

B5: MS103240H795-TT68/M103202L1045-SK1 (antibody)
heavy: B2 heavy with Y236L, I266V, R345P, D415K, L430M, T438Y
light: B1 light with S25T, A32E
notes: copies: 2 + 2
KD fold (SG1 = 1) [7]: 0.006 fold

B6: M103205H795-MY038/M103202L889-SK1 (antibody, human IgG1, kappa, name in EU numbering)
heavy: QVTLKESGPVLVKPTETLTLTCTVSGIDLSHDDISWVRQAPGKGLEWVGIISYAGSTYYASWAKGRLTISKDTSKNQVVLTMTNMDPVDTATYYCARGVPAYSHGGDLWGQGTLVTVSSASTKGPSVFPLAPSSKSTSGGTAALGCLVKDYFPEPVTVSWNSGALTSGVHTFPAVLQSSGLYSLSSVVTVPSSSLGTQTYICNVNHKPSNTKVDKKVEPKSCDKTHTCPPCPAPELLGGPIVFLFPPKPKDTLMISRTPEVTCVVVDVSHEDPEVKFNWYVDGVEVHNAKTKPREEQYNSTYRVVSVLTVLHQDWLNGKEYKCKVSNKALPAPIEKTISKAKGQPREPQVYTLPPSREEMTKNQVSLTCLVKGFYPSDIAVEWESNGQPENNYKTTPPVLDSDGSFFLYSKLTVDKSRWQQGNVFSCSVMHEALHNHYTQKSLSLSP
light: B1 light
notes: as for B3
Kd [13]: 550 nM

B7: M103205H795-MY043/M103202L889-SK1 (antibody, human IgG1, kappa, name in EU numbering)
heavy: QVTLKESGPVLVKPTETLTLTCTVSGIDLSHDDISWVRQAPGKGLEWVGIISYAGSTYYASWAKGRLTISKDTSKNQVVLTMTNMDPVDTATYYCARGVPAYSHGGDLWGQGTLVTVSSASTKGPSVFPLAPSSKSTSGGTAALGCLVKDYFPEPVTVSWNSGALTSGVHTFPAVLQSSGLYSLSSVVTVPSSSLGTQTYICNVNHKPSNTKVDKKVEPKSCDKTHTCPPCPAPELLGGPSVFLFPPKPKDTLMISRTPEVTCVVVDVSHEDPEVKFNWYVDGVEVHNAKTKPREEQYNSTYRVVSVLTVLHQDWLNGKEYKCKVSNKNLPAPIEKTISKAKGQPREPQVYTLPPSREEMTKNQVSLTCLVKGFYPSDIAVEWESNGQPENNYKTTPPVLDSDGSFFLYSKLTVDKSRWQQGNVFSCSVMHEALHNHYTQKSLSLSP
light: B1 light
notes: as for B3
KD fold (SG1 = 1) [11]: 0.5 fold | Kd [14]: 6.1 µM | Kd [13]: 1200 nM
